# Source: US20040265337A1, “Method of generating an immune response and compositions used for same” (priority 2002, published 2004)
# T1: HD-5 (Homo sapiens, UniProt Q01523)
# T1 sequence (Q01523 63-94 limits assumed): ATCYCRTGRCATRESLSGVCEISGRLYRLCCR
# Assays:
# trypsin = settings: in vitro; cited from earlier work
# HD-5 = target: T1, HD-5; settings: in vitro, against Salmonella enterica serovar Typhimurium; cited from earlier work
# human CEA antigen = assay: Cytotoxicity (CTL) assays in HD-5 transgenic mice immunized orally with the Salmonella based CEA-DNA vaccine; format: in vivo; settings: oral immunization, defensin inhibitor co-formulated or expressed by the strain
# Text: HD-5 inhibitors enhance efficacy of whole organism vaccines such as Salmonella enterica serovar Typhimurium. Human defensin 5 (HD-5), is the major defensin in humans which is bactericidal for Salmonella typhimurium infection. HD-5 transgenic mice are dramatically more resistant to Salmonella typhimurium infection providing a model system to study effectiveness of Salmonella typhimurium as a platform vaccine carrier in the presence of inhibitors of HD-5. See Gosh D. et al., Nature Immunology, 3:583 (2002); Zasloff M, Nature Immunology, 3:508 (2002). HD-5 inhibitors increase efficacy of the Salmonella enterica based human CEA-DNA vaccine. Human CEA (carcinoembryonic antigen) is a tumor antigen for which protective immunity can be induced by vaccination with a live attenuated Salmonella enterica vaccine. See Xiang R. et al., Clinical Cancer Research, 7: 856s (2001). Efficacy of the vaccine is measured by conducting cytotoxicity (CTL) assays in HD-5 transgenic mice to measure immune response to the human CEA antigen. CTL assays are conducted in mice immunized orally with various doses of the vaccine (RemeStim-CEA), with or without addition of the HD-5 inhibitor. […]
# [1] = tested on: Salmonella enterica serovar Typhimurium; settings: cited from earlier work
Molecule,"inhibition of the bactericidal activity of the mature, active defensin (HD-5)",further results
"N=C(N)c1ccc(CS(=O)(=O)F)cc1 [APMSF, 4-amidinophelylmethane sulfonyl-fluoride]",–,inhibition of maturation of pro-HD-5 to mature HD-5 by trypsin (trypsin): inhibit maturation of pro-HD-5 to mature HD-5
"Pro-piece of HD-5: pro-domain of human HD-5 (amino acids 20-62), HD-5 peptide inhibitor (ESLQERADEATTQKQSGEDNQDLAISFAGNGLSALRTSGSQAR)",inhibit the bactericidal activity,–
"alpha 1-proteinase inhibitor: serpin, inhibitor of defensins",inhibit the bactericidal activity,–
alpha 2-macroglobulin: protein inhibitor of defensins,inhibit the bactericidal activity,–
Dermatan sulfate [reference compound],inactivates alpha-defensin anti-bacterial activity,effectiveness of the Salmonella based CEA-DNA vaccine as measured by cytotoxicity assays (human CEA antigen): enhances the effectiveness
"HD-5: human defensin 5, anti-microbial peptide of the human intestine (protein, UniProt Q01523 20-94, looked up, Defensin-5, human defensin 5, anti-microbial peptide of the human intestine) Defensin alpha 5: ESLQERADEATTQKQSGEDNQDLAISFAGNGLSALRTSGSQARATCYCRTGRCATRESLSGVCEISGRLYRLCCR",–,bactericidal activity against Salmonella Typhimurium [1]: bactericidal
"alpha 1-antichymotrypsin: serpin, inhibitor of defensins (protein, UniProt P01011 24-423, looked up) Alpha-1-antichymotrypsin: HPNSPLDEENLTQENQDRGTHVDLGLASANVDFAFSLYKQLVLKAPDKNVIFSPLSISTALAFLSLGAHNTTLTEILKGLKFNLTETSEAEIHQSFQHLLRTLNQSSDELQLSMGNAMFVKEQLSLLDRFTEDAKRLYGSEAFATDFQDSAAAKKLINDYVKNGTRGKITDLIKDLDSQTMMVLVNYIFFKAKWEMPFDPQDTHQSRFYLSKKKWVMVPMMSLHHLTIPYFRDEELSCTVVELKYTGNASALFILPDQDKMEEVEAMLLPETLKRWRDSLEFREIGELYLPKFSISRDYNLNDILLQLGIEEAFTSKADLSGITGARNLAVSQVVHKAVLDVFEEGTEASAATAVKITLLSALVETRTIVRFNRPFLMIIVPTDTQNIFFMSKVTNPKQA",inhibit the bactericidal activity,–
